The supplement of paper PMC9170038

Test system: MS2 coat protein
Assay: apparent KD of MS2 coat protein; designed switch direction (-1 OFF switch, 1 ON switch): 1; higher = weaker reporter binding
In short: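 On Illumina chips, designed RNA switches with common flanks were made by stalled E. coli RNA polymerase. Titrations with SNAP-549-labelled MS2 coat protein, doubling from 0.7 or 1.5 nM to 3 µM, were done with no input, with 200 uM small-molecule ligand, or with an oligonucleotide input. Apparent KD is the median per design over clusters, from curve fits of normalised cluster fluorescence.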

[1] = input ligand: microRNA oligo, concentration not stated
[2] = Eterna round: R95, input ligand: FMN 200 uM
[3] = Eterna round: R95, input ligand: microRNA oligo, concentration not stated
[4] = Eterna round: R95, input ligand: none

| Sequence | apparent KD of MS2 coat protein (input ligand: FMN 200 uM) [nM] | apparent KD of MS2 coat protein [1] [nM] | apparent KD of MS2 coat protein (input ligand: none) [nM] | apparent KD of MS2 coat protein [2] [nM] | apparent KD of MS2 coat protein [3] [nM] | apparent KD of MS2 coat protein [4] [nM] |
| --- | --- | --- | --- | --- | --- | --- |
| GGUGCCAAUAAAGCCUACAUGAGGAUCACCCAUGUAUGUAGGCAGGAUAUCGUUUGCAAAGCAAACGAGAAGGGCCUAGGCACC [Mat - Same State NG 3 - JL Mod - D61] (Eterna round: R96, puzzle: Same State NG 3) | 18.6 | 21.4 | 31.5 |  |  |  |
| CUCAAACAUGAGGAUCACCCAUGUUUUUUCAUGGGAGGAUAUCUAAGUUCAUUAUAUUCAGGAGAAGGCCUAUCUC [× ×•×ª×• ×ž×“×™× ×” × ×—×ª-06] (puzzle: Same State 1) |  |  |  | 54.5 | 36 | 30.3 |
| UAAUUAAGUCAAGGAUAUCACGUCGAAUAGACGUGAGAAGGUGAUUAAUACAUGAGGAUCACCCAUGUAAUACAUGAAUAAUUA [SSNG1/11-B1] (Eterna round: R96, puzzle: Same State NG 1) | 38.3 | 61.6 | 70.8 |  |  |  |
| GUUACAUGAGGAUCACCCAUGUAUGUGUGGGAGUAAGUGUCUUAGGAUAUCUAUUAUUGAAAUUAAGAGAAGGAAGAUUGUUGU [JMF's solution 19] (Eterna round: R96, puzzle: Same State NG 3) |  | 98.6 |  |  |  |  |
| AACAAUCUAUCUGAGGAUAUCAUGAAAAAAACAUGAGGAUCACCCAUGUGCAGGAAAACUGCAUAUGAGAAGGCAGAUAGAUUGG [salish99_SS2_r3_003] (Eterna round: R96, puzzle: Same State 2) |  | 494 |  |  |  |  |
| CCAUAACAGUGAGGAUAUUGUUGCGAUAAGUGACGAGAAGGCAUUUAUGUGAAAUAAACAUACAUGAGGAUCACCCAUGUUGUA [Omei SS(NG)1 Bv4] (Eterna round: R96, puzzle: Same State NG 1) | 17.3 | 16.7 | 22.3 |  |  |  |
| UUGAGAAAUUAAGGAUAUUGAGUACAUAUGUUUAACAUGAGGAUCACCCAUGUGGGUUGCGGUAUCGAGAAGGUAAAUUACUAG [Mat - same State NG 2 - JL mod - D72] (Eterna round: R96, puzzle: Same State NG 2) | 138 | 64.7 | 112 |  |  |  |
| UUAUUAUUUACAUGAGGAUCACCCAUGUUUUUAUGUCUUAGACAGGAUAUAGUAGUCUCGUUUUACUAGAAGGGUCUUUUUAUU [JR_SSNG3_Sub018] (Eterna round: R96, puzzle: Same State NG 3) | 21.3 | 31.9 | 39.4 |  |  |  |
| AGUCCAGCCUGAGCUGGACAAAAGCAUGUACAUGAGGAUCACCCAUGUUCAUGUGCAAGCUUUUUGCUCGUCUUAAA [Zipper 52 - 4] (puzzle: Sensor for hsa-mir-208a) |  |  |  | 64.9 | 11.4 | 71.2 |
| UAGUACAAGCUUUUUGCUUGUCUUAUUUAACAUGAGGAUCACCCAUGUAAGUUGAAAGUUAGAGAGUGGAGGUUGAA [JR_SHM208A_Sub050] (puzzle: Sensor for hsa-mir-208a) |  |  |  | 20 | 20.4 | 18.8 |
| CUGAGAAGUCAAGGAUAUCACGUCGAUUAGACGUGAGAAGGUGAUCAGUACAUGAGGAUCACCCAUGUGUUACAUGGAACUCAG [Brourd's SSNG1/1-A2 mod 8] (Eterna round: R96, puzzle: Same State NG 1) | 1660 | 367 | 1110 |  |  |  |
| GAGUUACAUGAGGAUCACCCAUGUUGUUUUGGAUAAGGAUAUAUGGUAGGAAGAGGAAUGAUAGAAGGUAUUAGGG [JR_SS1_Sub063] (puzzle: Same State 1) |  |  |  |  | 25.3 |  |
| GGCAGACAUGAGGAUCACCCAUGUCGGCCGUUAGGAGGAUAUCGGUGAUAUCUGUCUCGCCGAGAAGGUUUAAUUA [Onaterleza] (puzzle: Same State 1) |  |  |  |  | 9.71 |  |
| GUUGAGAAAUAAGGAUAUACAUGGAAGACACAUGAGGAUCACCCAUGUGGGAGGGAAACCAGGAGGUAGAAGGUAUUGGGAAAC [AK SSNG2-V2-23] (Eterna round: R96, puzzle: Same State NG 2) | 33.1 | 24.1 | 43.7 |  |  |  |
| AUAAGGCAAGCUUUUUUCUCGUUGUGUAAACAUGAGGAUCACCCAUGUGCUCGCCCUGGAUCUUUGGAUCGCAGAAA [Rarisooron] (puzzle: Sensor for hsa-mir-208a) |  |  |  | 104 | 33.6 | 119 |
| GAGGAACAUGAGGAUCACCCAUGUGGGAUGGGACAAGGAUAUGUAGGUAGAGGAGAAGAGACAGAAGGUGUAGGAG [JR_SS1_Sub052] (puzzle: Same State 1) |  |  |  | 349 | 232 | 660 |

| Sequence | apparent KD of MS2 coat protein (input ligand: FMN 200 uM) [nM] | apparent KD of MS2 coat protein [1] [nM] | apparent KD of MS2 coat protein (input ligand: none) [nM] | apparent KD of MS2 coat protein [2] [nM] | apparent KD of MS2 coat protein [3] [nM] | apparent KD of MS2 coat protein [4] [nM] |
| --- | --- | --- | --- | --- | --- | --- |
| CAGCGCUGUUGAGAGGAUAUGCGGUGAUGGACAUGAGGAUCACCCAUGUUAGCGACAGCAUUACGGCAGAAGGCUUCACAGCUGC [Soteed Omei mod 17] (Eterna round: R96, puzzle: Same State 2) | 13.9 | 36.9 | 47.1 |  |  |  |
| AAUAUUAAGGCGGACGUUAACCGCAACCGACAUGAGGAUCACCCAUGUGCUUCAAGCUCAGACAUCUCUUAUCGUCA [Arrizareat] (Eterna round: R96, puzzle: Sensor for hsa-mir-208a) | 84.3 | 59.4 | 79 |  |  |  |
| UGCUAUAGUAUAUUGGUGCAAGCUUUUUGACAUGAGGAUCACCCAUGUACUCGUCUUAAGCGCAGUCCGUAGACUGC (puzzle: Sensor for hsa-mir-208a) |  |  |  | 84.5 | 13.8 | 89.9 |
| CGCCAAUUGGCACAGGAUAUGAGCAUGCUCACAUGAGGAUCACCCAUGUGAUUACCAACGCAAAAUCAGAAGGGUGCCCUCGUCA [Beanza] (Eterna round: R96, puzzle: Same State 2) | 80.6 | 99.1 | 164 |  |  |  |
| UAAAGCAAGUCAGGAUAUGGGAAAGGAAGUGUACUAGAAGGGACUUGUAGGAACAUGAGGAUCACCCAUGUACCGCGGACUAAA [PowerStrip SSNG 1.7] (Eterna round: R96, puzzle: Same State NG 1) | 31.7 | 42.6 | 47.8 |  |  |  |
| UUUUUAUAACAUGAGGAUCACCCAUGUGCGCGCACAAGGUUGUUGCUCGUCUUAUUUUUUUUUUUUUUUUUUUUUUU [viviankchen2] (puzzle: Sensor for hsa-mir-208a version 2) |  |  |  | 33.2 | 220 | 44.1 |
| UUGAAGAAUAUAGGAUAUUGAAUACAUAUGUUUAACAUGAGGAUCACCCAUGUGGGUUGCGGUAUCGAGAAGGAUAAAUAAAAG [Mat - Same State NG 2 - JL mod - D14] (Eterna round: R96, puzzle: Same State NG 2) | 203 | 162 | 181 |  |  |  |
| ACAAGCUUUUUGCUCAUCUUAUGUCCGAAACAUGAGGAUCACCCAUGUAUAGAUUAUGUGUUGUUGUAGAUACAAGA [JR_SHM208A_Sub063] (puzzle: Sensor for hsa-mir-208a) |  |  |  | 22.7 | 19.6 | 28.3 |
| AUACAUGAGGAUCACCCAUGUAAUUAAUUAACUUGUAAGAUCAAGGAUAUCAGCUCGAAUAGAGCUGAGAAGGUGAUCACAUGU [SSNG3/21-C1] (Eterna round: R96, puzzle: Same State NG 3) |  | 105 |  |  |  |  |
| AUUAAUUAAUUAAUACAUGAGGAUCACCCAUGUAAUAAGAUCAAGGAUAUCAGCUCGAUUAGAGCUGAGAAGGUGAUCACAUGU [SSNG3/17-B2] (Eterna round: R96, puzzle: Same State NG 3) |  | 509 |  |  |  |  |
| GUUACAUGAGGAUCACCCAUGUAUGUGUGGGAGUAAGUGUCUUAGGAUAUCUAUGAUAUAAUUUAAGAGAAGGAAGAUUGUUGU [JMF's solution 75] (Eterna round: R96, puzzle: Same State NG 3) | 103 | 69.9 | 136 |  |  |  |
| AUUUAACAAGCUUUUUGCUCGUCUUAUAAACAUGAGGAUCACCCAUGUAAUAGCGUGAGAGUAAAUAAUUUAAUUAU [JMF 99] (puzzle: Sensor for hsa-mir-208a) |  |  |  | 13.7 | 48.6 | 10.8 |
| GUUACAUGAGGAUCACCCAUGUAUGUGUGGGAGUAAGUGUCUUAGGAUAUCUAGUUUUUAAUUUAAGAGAAGGAAGAUUGUUGU [JMF's solution 52] (Eterna round: R96, puzzle: Same State NG 3) | 151 | 67.2 | 114 |  |  |  |
| GGAGCCGGCCUAGGAUAUUUCAUAUAAUAACAUGAGGAUCACCCAUGUAGGCCAGAAGGCCUUGGGAAGAAGGAGGUCGGCUCC [Loop Effect - U25,U28] (Eterna round: R96, puzzle: Same State NG 2) | 13.1 | 39.1 | 50.8 |  |  |  |
| UGUUGUAUUACAGGAUAUCUAUGAUUUUUAUAUAGAGAAGGGUAUUCACAUGAGGAUCACCCAUGUAUAUACGAGGAAGUUGUG [JMF's solution 68] (Eterna round: R96, puzzle: Same State NG 1) |  | 39.6 |  |  |  |  |
| UAGAACAAGCUUUUUGCCCGUCUUAGAUAACAUGAGGAUCACCCAUGUAAGGUGAAAGUUAGAGAGUGGAGGAAGAA [JR_SHM208A_Sub054] (puzzle: Sensor for hsa-mir-208a) |  |  |  | 86.4 | 217 | 146 |
